Measurements: patent publication US20210388087A1 (Chugai, published 2021)

Target: T1, Human CD137 ECD (human)
T1 construct: entry includes C-terminal His-tag and biotin acceptor peptide; also called human CD137 extracellular domain; 4-1BB
Test: Biacore SPR, vs parent H183/L072

T1 sequence (chain, as listed by the source limits assumed): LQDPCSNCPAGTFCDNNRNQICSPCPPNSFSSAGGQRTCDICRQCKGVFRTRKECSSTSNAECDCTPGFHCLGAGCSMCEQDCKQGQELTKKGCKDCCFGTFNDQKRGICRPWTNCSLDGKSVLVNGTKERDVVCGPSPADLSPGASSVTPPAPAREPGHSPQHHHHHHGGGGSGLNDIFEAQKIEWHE

Binder	fold change of affinity [fold]
H183/L072 VL L33M (antibody, name in Kabat numbering, V domains shown, Dual-Ig) VH: QVQLVESGGGLVQPGRSLRLSCAASGFTFSNAWMHWVRQAPGKGLEWVAQIKDKGNAYAAYYAPSVKGRFTISRDDSKNSIYLQMNSLKTEDTAVYYCHYVHYASASTVLPAFGVDAWGQGTTVTVSS VL: DIVMTQSPLSLPVTPGEPASISCQASQELVHMNRNTYMHWYQQKPGQAPRLLIYKVSNRFPGVPDRFSGSGSGTDFTLKISRVEAEDVGVYYCAQGTSVPFTFGQGTKLEIK	0.9
H183/L072 VL L33V (antibody, name in Kabat numbering, V domains shown, Dual-Ig) VH: QVQLVESGGGLVQPGRSLRLSCAASGFTFSNAWMHWVRQAPGKGLEWVAQIKDKGNAYAAYYAPSVKGRFTISRDDSKNSIYLQMNSLKTEDTAVYYCHYVHYASASTVLPAFGVDAWGQGTTVTVSS VL: DIVMTQSPLSLPVTPGEPASISCQASQELVHMNRNTYVHWYQQKPGQAPRLLIYKVSNRFPGVPDRFSGSGSGTDFTLKISRVEAEDVGVYYCAQGTSVPFTFGQGTKLEIK	0.6
H183/L072 VL L33T (antibody, name in Kabat numbering, V domains shown, Dual-Ig) VH: QVQLVESGGGLVQPGRSLRLSCAASGFTFSNAWMHWVRQAPGKGLEWVAQIKDKGNAYAAYYAPSVKGRFTISRDDSKNSIYLQMNSLKTEDTAVYYCHYVHYASASTVLPAFGVDAWGQGTTVTVSS VL: DIVMTQSPLSLPVTPGEPASISCQASQELVHMNRNTYTHWYQQKPGQAPRLLIYKVSNRFPGVPDRFSGSGSGTDFTLKISRVEAEDVGVYYCAQGTSVPFTFGQGTKLEIK	0.2
H183/L072 VL M27eP (antibody, name in Kabat numbering, V domains shown, Dual-Ig) VH: QVQLVESGGGLVQPGRSLRLSCAASGFTFSNAWMHWVRQAPGKGLEWVAQIKDKGNAYAAYYAPSVKGRFTISRDDSKNSIYLQMNSLKTEDTAVYYCHYVHYASASTVLPAFGVDAWGQGTTVTVSS VL: DIVMTQSPLSLPVTPGEPASISCQASQELVHPNRNTYLHWYQQKPGQAPRLLIYKVSNRFPGVPDRFSGSGSGTDFTLKISRVEAEDVGVYYCAQGTSVPFTFGQGTKLEIK	1
H183/L072 VL M27eA (antibody, name in Kabat numbering, V domains shown, Dual-Ig) VH: QVQLVESGGGLVQPGRSLRLSCAASGFTFSNAWMHWVRQAPGKGLEWVAQIKDKGNAYAAYYAPSVKGRFTISRDDSKNSIYLQMNSLKTEDTAVYYCHYVHYASASTVLPAFGVDAWGQGTTVTVSS VL: DIVMTQSPLSLPVTPGEPASISCQASQELVHANRNTYLHWYQQKPGQAPRLLIYKVSNRFPGVPDRFSGSGSGTDFTLKISRVEAEDVGVYYCAQGTSVPFTFGQGTKLEIK	1
H183/L072 VL M27eG (antibody, name in Kabat numbering, V domains shown, Dual-Ig) VH: QVQLVESGGGLVQPGRSLRLSCAASGFTFSNAWMHWVRQAPGKGLEWVAQIKDKGNAYAAYYAPSVKGRFTISRDDSKNSIYLQMNSLKTEDTAVYYCHYVHYASASTVLPAFGVDAWGQGTTVTVSS VL: DIVMTQSPLSLPVTPGEPASISCQASQELVHGNRNTYLHWYQQKPGQAPRLLIYKVSNRFPGVPDRFSGSGSGTDFTLKISRVEAEDVGVYYCAQGTSVPFTFGQGTKLEIK	0.7
H183/L072 VL M27eE (antibody, name in Kabat numbering, V domains shown, Dual-Ig) VH: QVQLVESGGGLVQPGRSLRLSCAASGFTFSNAWMHWVRQAPGKGLEWVAQIKDKGNAYAAYYAPSVKGRFTISRDDSKNSIYLQMNSLKTEDTAVYYCHYVHYASASTVLPAFGVDAWGQGTTVTVSS VL: DIVMTQSPLSLPVTPGEPASISCQASQELVHENRNTYLHWYQQKPGQAPRLLIYKVSNRFPGVPDRFSGSGSGTDFTLKISRVEAEDVGVYYCAQGTSVPFTFGQGTKLEIK	0.9
H183/L072 VL M27eK (antibody, name in Kabat numbering, V domains shown, Dual-Ig) VH: QVQLVESGGGLVQPGRSLRLSCAASGFTFSNAWMHWVRQAPGKGLEWVAQIKDKGNAYAAYYAPSVKGRFTISRDDSKNSIYLQMNSLKTEDTAVYYCHYVHYASASTVLPAFGVDAWGQGTTVTVSS VL: DIVMTQSPLSLPVTPGEPASISCQASQELVHKNRNTYLHWYQQKPGQAPRLLIYKVSNRFPGVPDRFSGSGSGTDFTLKISRVEAEDVGVYYCAQGTSVPFTFGQGTKLEIK	1.1
H183/L072 VL L33W (antibody, name in Kabat numbering, V domains shown, Dual-Ig) VH: QVQLVESGGGLVQPGRSLRLSCAASGFTFSNAWMHWVRQAPGKGLEWVAQIKDKGNAYAAYYAPSVKGRFTISRDDSKNSIYLQMNSLKTEDTAVYYCHYVHYASASTVLPAFGVDAWGQGTTVTVSS VL: DIVMTQSPLSLPVTPGEPASISCQASQELVHMNRNTYWHWYQQKPGQAPRLLIYKVSNRFPGVPDRFSGSGSGTDFTLKISRVEAEDVGVYYCAQGTSVPFTFGQGTKLEIK	0.1
H183/L072 VL M27eQ (antibody, name in Kabat numbering, V domains shown, Dual-Ig) VH: QVQLVESGGGLVQPGRSLRLSCAASGFTFSNAWMHWVRQAPGKGLEWVAQIKDKGNAYAAYYAPSVKGRFTISRDDSKNSIYLQMNSLKTEDTAVYYCHYVHYASASTVLPAFGVDAWGQGTTVTVSS VL: DIVMTQSPLSLPVTPGEPASISCQASQELVHQNRNTYLHWYQQKPGQAPRLLIYKVSNRFPGVPDRFSGSGSGTDFTLKISRVEAEDVGVYYCAQGTSVPFTFGQGTKLEIK	1
H183/L072 VL L33Q (antibody, name in Kabat numbering, V domains shown, Dual-Ig) VH: QVQLVESGGGLVQPGRSLRLSCAASGFTFSNAWMHWVRQAPGKGLEWVAQIKDKGNAYAAYYAPSVKGRFTISRDDSKNSIYLQMNSLKTEDTAVYYCHYVHYASASTVLPAFGVDAWGQGTTVTVSS VL: DIVMTQSPLSLPVTPGEPASISCQASQELVHMNRNTYQHWYQQKPGQAPRLLIYKVSNRFPGVPDRFSGSGSGTDFTLKISRVEAEDVGVYYCAQGTSVPFTFGQGTKLEIK	1.4
H183/L072 VL M27eD (antibody, name in Kabat numbering, V domains shown, Dual-Ig) VH: QVQLVESGGGLVQPGRSLRLSCAASGFTFSNAWMHWVRQAPGKGLEWVAQIKDKGNAYAAYYAPSVKGRFTISRDDSKNSIYLQMNSLKTEDTAVYYCHYVHYASASTVLPAFGVDAWGQGTTVTVSS VL: DIVMTQSPLSLPVTPGEPASISCQASQELVHDNRNTYLHWYQQKPGQAPRLLIYKVSNRFPGVPDRFSGSGSGTDFTLKISRVEAEDVGVYYCAQGTSVPFTFGQGTKLEIK	0.7
H183/L072 VL L33Y (antibody, name in Kabat numbering, V domains shown, Dual-Ig) VH: QVQLVESGGGLVQPGRSLRLSCAASGFTFSNAWMHWVRQAPGKGLEWVAQIKDKGNAYAAYYAPSVKGRFTISRDDSKNSIYLQMNSLKTEDTAVYYCHYVHYASASTVLPAFGVDAWGQGTTVTVSS VL: DIVMTQSPLSLPVTPGEPASISCQASQELVHMNRNTYYHWYQQKPGQAPRLLIYKVSNRFPGVPDRFSGSGSGTDFTLKISRVEAEDVGVYYCAQGTSVPFTFGQGTKLEIK	0.1
H183/L072 VL L33P (antibody, name in Kabat numbering, V domains shown, Dual-Ig) VH: QVQLVESGGGLVQPGRSLRLSCAASGFTFSNAWMHWVRQAPGKGLEWVAQIKDKGNAYAAYYAPSVKGRFTISRDDSKNSIYLQMNSLKTEDTAVYYCHYVHYASASTVLPAFGVDAWGQGTTVTVSS VL: DIVMTQSPLSLPVTPGEPASISCQASQELVHMNRNTYPHWYQQKPGQAPRLLIYKVSNRFPGVPDRFSGSGSGTDFTLKISRVEAEDVGVYYCAQGTSVPFTFGQGTKLEIK	0.2
H183/L072 VL M27eH (antibody, name in Kabat numbering, V domains shown, Dual-Ig) VH: QVQLVESGGGLVQPGRSLRLSCAASGFTFSNAWMHWVRQAPGKGLEWVAQIKDKGNAYAAYYAPSVKGRFTISRDDSKNSIYLQMNSLKTEDTAVYYCHYVHYASASTVLPAFGVDAWGQGTTVTVSS VL: DIVMTQSPLSLPVTPGEPASISCQASQELVHHNRNTYLHWYQQKPGQAPRLLIYKVSNRFPGVPDRFSGSGSGTDFTLKISRVEAEDVGVYYCAQGTSVPFTFGQGTKLEIK	0.8
H183/L072 VL M27eN (antibody, name in Kabat numbering, V domains shown, Dual-Ig) VH: QVQLVESGGGLVQPGRSLRLSCAASGFTFSNAWMHWVRQAPGKGLEWVAQIKDKGNAYAAYYAPSVKGRFTISRDDSKNSIYLQMNSLKTEDTAVYYCHYVHYASASTVLPAFGVDAWGQGTTVTVSS VL: DIVMTQSPLSLPVTPGEPASISCQASQELVHNNRNTYLHWYQQKPGQAPRLLIYKVSNRFPGVPDRFSGSGSGTDFTLKISRVEAEDVGVYYCAQGTSVPFTFGQGTKLEIK	0.8
H183/L072 VL M27eF (antibody, name in Kabat numbering, V domains shown, Dual-Ig) VH: QVQLVESGGGLVQPGRSLRLSCAASGFTFSNAWMHWVRQAPGKGLEWVAQIKDKGNAYAAYYAPSVKGRFTISRDDSKNSIYLQMNSLKTEDTAVYYCHYVHYASASTVLPAFGVDAWGQGTTVTVSS VL: DIVMTQSPLSLPVTPGEPASISCQASQELVHFNRNTYLHWYQQKPGQAPRLLIYKVSNRFPGVPDRFSGSGSGTDFTLKISRVEAEDVGVYYCAQGTSVPFTFGQGTKLEIK	0.7
H183/L072 VL M27eL (antibody, name in Kabat numbering, V domains shown, Dual-Ig) VH: QVQLVESGGGLVQPGRSLRLSCAASGFTFSNAWMHWVRQAPGKGLEWVAQIKDKGNAYAAYYAPSVKGRFTISRDDSKNSIYLQMNSLKTEDTAVYYCHYVHYASASTVLPAFGVDAWGQGTTVTVSS VL: DIVMTQSPLSLPVTPGEPASISCQASQELVHLNRNTYLHWYQQKPGQAPRLLIYKVSNRFPGVPDRFSGSGSGTDFTLKISRVEAEDVGVYYCAQGTSVPFTFGQGTKLEIK	0.8
H183/L072 VL L33N (antibody, name in Kabat numbering, V domains shown, Dual-Ig) VH: QVQLVESGGGLVQPGRSLRLSCAASGFTFSNAWMHWVRQAPGKGLEWVAQIKDKGNAYAAYYAPSVKGRFTISRDDSKNSIYLQMNSLKTEDTAVYYCHYVHYASASTVLPAFGVDAWGQGTTVTVSS VL: DIVMTQSPLSLPVTPGEPASISCQASQELVHMNRNTYNHWYQQKPGQAPRLLIYKVSNRFPGVPDRFSGSGSGTDFTLKISRVEAEDVGVYYCAQGTSVPFTFGQGTKLEIK	0.1
H183/L072 VL M27eI (antibody, name in Kabat numbering, V domains shown, Dual-Ig) VH: QVQLVESGGGLVQPGRSLRLSCAASGFTFSNAWMHWVRQAPGKGLEWVAQIKDKGNAYAAYYAPSVKGRFTISRDDSKNSIYLQMNSLKTEDTAVYYCHYVHYASASTVLPAFGVDAWGQGTTVTVSS VL: DIVMTQSPLSLPVTPGEPASISCQASQELVHINRNTYLHWYQQKPGQAPRLLIYKVSNRFPGVPDRFSGSGSGTDFTLKISRVEAEDVGVYYCAQGTSVPFTFGQGTKLEIK	0.9
